Results on five substances are retold here after US20230125614A1.

One test deals with ARC40-GFP bait (S. cerevisiae ARC40, member of the Arp2/3 complex, fused with a C-terminal GFP epitope tag) (Saccharomyces cerevisiae) (UniProt P38328). The experiment in a line: low-throughput in vivo mRNA display co-purification, individually cloned ORFs, anti-GFP bead IP of ARC40-GFP.
In turn, “in vivo mRNA display protein MYO3 (MCP-MYO3 fusion, individually cloned for the low-throughput experiment) (from UniProt P36006 1-1272)” returned a Display Score of 1.9.
The same measure, in the same setting: next, “in vivo mRNA display library protein ARP2 (MCP-ARP2 fusion with purification tag) (from UniProt P32381 1-391)”: 1.8.

A further test has the same target. The experiment in a line: in vivo mRNA display co-purification, pooled yeast library, anti-GFP bead IP of ARC40-GFP, NGS read-out.
“in vivo mRNA display library protein ARC19 (MCP-ARC19 fusion with purification tag) (from UniProt P33204 1-171)”: the Display Score came out at 3.9.
Still for that read-out and setting: next, “in vivo mRNA display library protein ARC18 (MCP-ARC18 fusion with purification tag) (from UniProt Q05933 1-178)”: 3.3.
Same read-out and setting: in the case of “in vivo mRNA display library protein ARC35 (MCP-ARC35 fusion with purification tag) (from UniProt P53731 1-342)” it was 3.7; in that of “in vivo mRNA display library protein ARP2 (MCP-ARP2 fusion with purification tag) (from UniProt P32381 1-391)”, 0.55.
